One may read the stoichiometry N as a count of units in the complex or per binding partner.

Seven proteins from article PMC3052533, “Amino acid changes within the Bunyamwera virus nucleocapsid protein differentially affect the mRNA transcription and RNA replication activities of assembled ribonucleoprotein templates” (The Journal of General Virology, 2011) can be followed below.

Sequences and labels used below:
B1: Bunyamwera virus (BUNV) nucleocapsid (N) protein, wild type (natural protein)
chain: MIELEFHDVAANTSSTFDPEVAYANFKRVHTTGLSYDHIRIFYIKGREIKTSLAKRSEWEVTLNLGGWKITVYNTNFPGNRNNPVPDDGLTLHRLSGFLARYLLEKMLKVSEPEKLIIKSKIINPLAEKNGITWNDGEEVYLSFFPGSEMFLGTFRFYPLAIGIYKVQRKEMEPKYLEKTMRQRYMGLEAATWTVSKLTEVQSALTVVSSLGWKKTNVSAAARDFLAKFGINM
notes: nucleocapsid (N) protein of Bunyamwera virus, expressed from plasmid pET-BUN-N (Rodgers et al., 2006); predicted monomer mass 28.8 kDa; also called BUNV N protein; WT
B2: BUNV N protein K50A (natural protein, Bunyamwera virus, UniProt P16495 1-233, looked up)
chain: MIELEFHDVAANTSSTFDPEVAYANFKRVHTTGLSYDHIRIFYIKGREIATSLAKRSEWEVTLNLGGWKITVYNTNFPGNRNNPVPDDGLTLHRLSGFLARYLLEKMLKVSEPEKLIIKSKIINPLAEKNGITWNDGEEVYLSFFPGSEMFLGTFRFYPLAIGIYKVQRKEMEPKYLEKTMRQRYMGLEAATWTVSKLTEVQSALTVVSSLGWKKTNVSAAARDFLAKFGINM
notes: nucleocapsid (N) protein of Bunyamwera virus, from modified plasmid pET-BUN-N, single alanine substitution
B3: BUNV N protein K179A (natural protein, Bunyamwera virus, UniProt P16495 1-233, looked up)
chain: MIELEFHDVAANTSSTFDPEVAYANFKRVHTTGLSYDHIRIFYIKGREIKTSLAKRSEWEVTLNLGGWKITVYNTNFPGNRNNPVPDDGLTLHRLSGFLARYLLEKMLKVSEPEKLIIKSKIINPLAEKNGITWNDGEEVYLSFFPGSEMFLGTFRFYPLAIGIYKVQRKEMEPKYLEATMRQRYMGLEAATWTVSKLTEVQSALTVVSSLGWKKTNVSAAARDFLAKFGINM
notes: as for B2
B4: BUNV N protein K55A (natural protein, Bunyamwera virus, UniProt P16495 1-233, looked up)
chain: MIELEFHDVAANTSSTFDPEVAYANFKRVHTTGLSYDHIRIFYIKGREIKTSLAARSEWEVTLNLGGWKITVYNTNFPGNRNNPVPDDGLTLHRLSGFLARYLLEKMLKVSEPEKLIIKSKIINPLAEKNGITWNDGEEVYLSFFPGSEMFLGTFRFYPLAIGIYKVQRKEMEPKYLEKTMRQRYMGLEAATWTVSKLTEVQSALTVVSSLGWKKTNVSAAARDFLAKFGINM
notes: as for B2
B5: BUNV N protein R40A (natural protein, Bunyamwera virus, UniProt P16495 1-233, looked up)
chain: MIELEFHDVAANTSSTFDPEVAYANFKRVHTTGLSYDHIAIFYIKGREIKTSLAKRSEWEVTLNLGGWKITVYNTNFPGNRNNPVPDDGLTLHRLSGFLARYLLEKMLKVSEPEKLIIKSKIINPLAEKNGITWNDGEEVYLSFFPGSEMFLGTFRFYPLAIGIYKVQRKEMEPKYLEKTMRQRYMGLEAATWTVSKLTEVQSALTVVSSLGWKKTNVSAAARDFLAKFGINM
notes: as for B2
B6: BUNV N protein R101A (natural protein, Bunyamwera virus, UniProt P16495 1-233, looked up)
chain: MIELEFHDVAANTSSTFDPEVAYANFKRVHTTGLSYDHIRIFYIKGREIKTSLAKRSEWEVTLNLGGWKITVYNTNFPGNRNNPVPDDGLTLHRLSGFLAAYLLEKMLKVSEPEKLIIKSKIINPLAEKNGITWNDGEEVYLSFFPGSEMFLGTFRFYPLAIGIYKVQRKEMEPKYLEKTMRQRYMGLEAATWTVSKLTEVQSALTVVSSLGWKKTNVSAAARDFLAKFGINM
notes: as for B2
B7: BUNV N protein R94A (natural protein, Bunyamwera virus, UniProt P16495 1-233, looked up)
chain: MIELEFHDVAANTSSTFDPEVAYANFKRVHTTGLSYDHIRIFYIKGREIKTSLAKRSEWEVTLNLGGWKITVYNTNFPGNRNNPVPDDGLTLHALSGFLARYLLEKMLKVSEPEKLIIKSKIINPLAEKNGITWNDGEEVYLSFFPGSEMFLGTFRFYPLAIGIYKVQRKEMEPKYLEKTMRQRYMGLEAATWTVSKLTEVQSALTVVSSLGWKKTNVSAAARDFLAKFGINM
notes: nucleocapsid (N) protein of Bunyamwera virus, from modified plasmid pET-BUN-N, single alanine substitution; monomers and tetramers equally abundant

The data set deals with the molecule itself. The experiment in a line: SEC; Superdex S200 column, purified N proteins analysed immediately following purification; elution compared with molecular mass standards; monomer and tetramer peaks. A general note: In gel filtration, larger molecules generally elute earlier.
On to B1, for which the “stoichiometry N” value turned out to be 4.
Regarding B2, the binding result is “binds”.
As to B3, the binding result was “binds”.
Same read-out and setting: the value for B4 was “binds”; that for B5 was “binds”; that for B6 was “binds”.
Take B7: the “stoichiometry N” value is 4.
